Key:
[1] = target: CWI (cell wall invertase) extracted from mature soybean leaves (Glycine max (endogenous in mature leaves))
[2] = target: VI (vacuolar invertase) extracted from mature soybean leaves (Glycine max (endogenous in mature leaves))

Row | inhibition of CWI activity (glucose released from sucrose) of a leaf cell-wall preparation after 30 min at 37 °C with recombinant GmC/VIF2; maximum at about 100 ng [1] [%] | inhibition of VI activity (glucose released from sucrose) of a leaf soluble fraction after 30 min at 37 °C with recombinant GmC/VIF2; maximum at about 100 ng [2] [%] | inhibition of VI activity (glucose released from sucrose) of a leaf soluble fraction after 30 min at 37 °C with recombinant GmCIF1; maximum at about 50 ng, no further effect at 100 ng and 1000 ng [2] [%] | Substance
1 | 80 | 75 | – | recombinant GmC/VIF2 (natural protein)
2 | – | – | 70 | recombinant GmCIF1 (natural protein)
